Residue numbers refer to the chain shown, from its start.
B1: chAb6: chimeric anti-B7-H3 antibody huIgG1/k, parental hybridoma Ab6; VH SEQ ID NO: 56, VL SEQ ID NO: 60 (antibody, V domains shown)
VH: QVQLQQSGAELMKPGASVKISCKATGYTFSRYWIEWVKQRPGHGLEWIGEILPGSGSTNYNEKFKGKATFTADTSSNTAYMQVSSLTSEDSAVHYCARRGYGYVPYALDYWGQGTSVTVSS
VL: EIQMTQTTSSLSASLGDRVTISCRASQDISNSLNWYQQKPDGTVNLLIYYTSRLYSGVPSRFSGSGSGTDYSLTISNLEQEDIATYFCQQGNTLPYTFGGGTKLEIK
modifications: human IgG1/kappa constant regions; Synthetic chAb6 VH amino acid sequence; Synthetic chAb6 VL amino acid sequence
B2: chAb16: chimeric anti-B7-H3 antibody huIgG1/k, parental hybridoma Ab16; VH SEQ ID NO: 72, VL SEQ ID NO: 76 (antibody, V domains shown)
VH: EVKLLESGGGLVQPGGSLKLSCAASGFDFSRYWMSWVRQAPGKGLEWIGEINPDSSTINYTPSLKDKFIISRDNAKNTLYLQMSKVRSEDTALYYCARPGFGNYIYAMDYWGQGTSVTVSS
VL: B1 VL with E1D, S22N, S32F, N45K, S56L, Y96P
modifications: human IgG1/kappa constant regions; Synthetic chAb16 VH amino acid sequence; Synthetic chAb16 VL amino acid sequence

Legend:
[1] = Conjugation observation (precipitation after conjugation, Method A); assay type: physicochemical; settings: conjugated to synthon CZ
Experimental: Table 6 provides cell surface binding and cytotoxicity activity of anti-B7-H3 chimera ADCs against breast cancer cell HCC38 expressing human B7-H3.
A solution of Bond-Breaker™ tris(2-carboxyethyl)phosphine (TCEP) solution (10 mM, 0.017 mL) was added to a solution of antibody (10 mg/mL, 1 mL) preheated to 37° C. The reaction mixture was kept at 37° C. for 1 hour. The solution of reduced antibody was added to a solution of synthon (3.3 mM, 0.160 mL in DMSO) and gently mixed for 30 minutes. The reaction solution was loaded onto a desalting column (PD10, washed with Dulbecco's phosphate-buffered saline [DPBS] 3× before use), followed by DPBS (3 mL). The purified ADC solution was filtered through a 0.2 micron, low protein-binding 13 mm syringe-filter and stored at 4° C.

HCC38 cell line = experiment: In vitro cell viability assay (CellTiter-Glo), HCC38; assay type: cell-based, human; settings: conjugated to synthon CZ
Experimental: The tumor cell lines HCC38 (breast cancer), NCI-H1650 (NSCLC) and NCI-H847 (small cell lung cancer cell line) were obtained from American Type Culture Collection (ATCC). Cells were grown in 96-well culture plates using recommended growth media overnight at a density of 5×10^3 (HCC38) or 20×10^3 (NCI-H847) or 40×10^3 (NCI-H1650) per well. The following day, treatments were added in fresh media to triplicate wells. Cellular viability was determined 5 days later using the CellTiter-Glo Luminescent Cell Viability Assay kit (Promega), as directed in the manufacturer's protocol. Cell viability was assessed as percentage of control untreated cells.

Row | Molecule | precipitation following conjugation to synthon CZ (in words) [1] | cytotoxicity in cells expressing human B7-H3 / HCC38 cell line (in words) (HCC38 cell line)
1 | B1 | precipitated | weak cytotoxicity
2 | B2 | precipitated | weak cytotoxicity

Source: patent US20200002421A1, “ANTI-B7-H3 ANTIBODIES AND ANTIBODY DRUG CONJUGATES” (AbbVie Inc., priority 2016, published 2020)
